Measured values taken from patent US20160194394A1 (GOVERNING COUNCIL OF THE UNIVERSITY OF TORONTO, published 2016).

What was measured:
[1] = biological target: T1, recombinant Frizzled receptor 7 (FZD7) cysteine-rich domain (CRD) fused to the Fc region of human IgG (human, UniProt O75084 33-185); test: ELISA, 1ug/ml (20nM) Fab
Description: (§1) FIG. 2B is a table depicting the binding of purified Fabs to purified FZD7-Fc measured by ELISA. Fabs purified from 25 ml bacterial cultures were assayed for binding to FZD7-Fc fusion protein (R&D systems) and Fc protein. ELISA plates (384 well) were coated with 2 ug/ml of protein in PBS overnight at four degrees. Wells were blocked with 0.5% BSA/PBS for 1 hour at room temperature, washed three times with 0.05% Tween20/PBS (wash buffer), and then primary dilutions of Fabs in 0.5% BSA/0.05% Tween20/PBS (dilution buffer) were added at indicated concentrations. Fabs were incubated for 1 hour at room temperature, wells were washed six times, and anti-FLAG-HRP (Sigma) was added at 1:5000 in dilution buffer. Secondary antibody was incubated for 45 minutes at room temperature, and wells were washed six times and developed with TMB substrate with an acid stop. The absorbance at 450 nm was read. n.t.=not tested.

Fc control protein [2] = biological target: T2, Fc control protein; test: ELISA, 1ug/ml (20nM) Fab
T2 construct: also called Fc protein; control Fc protein
Description: as §1

[3] = biological target: T1, recombinant Frizzled receptor 7 (FZD7) …; test: ELISA, 10ug/ml (200nM) Fab
Description: as §1

Fc control protein [4] = biological target: T2, Fc control protein; test: ELISA, 10ug/ml (200nM) Fab
Description: as §1

[5] = biological target: T3, FZD7 receptor expressed on cells (full-length) (UniProt O75084 33-574, limits assumed); test: flow cytometry, 200 nM Fab, MDA MB 231
T3 construct: whole, on cells; MDA MB 231 cells may carry other Frizzled receptors too; also called full-length FZD7 receptor; endogenous receptor on MDA MB 231 cells
Description: (§2) FIG. 3 is a table depicting the binding of the purified Fabs to cells expressing FZD7 (flow cytometry). Small scale Fabs were assayed for binding to full-length FZD7 receptor to an over-expression line in MDA MB 231 cells. In parallel, Fabs were assayed for binding to endogenous receptor expressed on the MDA MB 231 cells. Cells were harvested using an EDTA solution, blocked in 2% FBS/PBS (stain buffer), and stained with 200 nM Fab for 30 min on ice. Cells were washed two times with stain buffer and incubated with anti-F(ab′)₂-APC secondary antibody (Jackson Immuno) at 1:1000 for 15 minutes on ice. All antibodies were diluted in stain buffer. Cells were washed three times with stain buffer and then fixed with 1% paraformaldehye for analysis by flow cytometry. […] The percent of the cell population within the positive gates is indicated.

[6] = biological target: T3, FZD7 receptor expressed on cells …; test: flow cytometry, 200 nM Fab, FZD7 over-expression line (MDA MB 231)
Description: as §2

B1: G1 (Fab)
light: DIQMTQSPSSLSASVGDRVTITCRASQSVSSAVAWYQQKPGKAPKLLIYSASSLYSGVPSRFSGSRSGTDFTLTISSLQPEDFATYYCQQWGYGALITFGQGTKVEIKRTVAAPSVFIFPPSDSQLKSGTASVVCLLNNFYPREAKVQWKVDNALQSGNSQESVTEQDSKDSTYSLSSTLTLSKADYEKHKVYACEVTHQGLSSPVTKSFNRGECGGS
heavy: EVQLVESGGGLVQPGGSLRLSCAASGFNISYSSIHWVRQAPGKGLEWVASIYPSPGYTSYADSVKGRFTISADTSKNTAYLQMNSLRAEDTAVYYCARHGWYGLDYWGQGTLVTVSSASTKGPSVFPLAPSSKSTSGGTAALGCLVKDYFPEPVTVSWNSGALTSGVHTFPAVLQSSGLYSLSSVVTVPSSSLGTQTYICNVNHKPSNTKVDKKVEPKSC
notes: selection round 2; same four CDRs as Fzd7-R2-G12 (f18); also called Fzd7-R2-G1
OD 450 [1]: 3.17 | OD 450 (Fc control protein [2]): 0.05 | OD 450 [3]: 3.18 | OD 450 (Fc control protein [4]): 0.05 | % population within the positive gate [5]: 28.6% | % population within the positive gate [6]: 83.4%

B2: G12 (Fab)
light: DIQMTQSPSSLSASVGDRVTITCRASQSVSSAVAWYQQKPGKAPKLLIYSASSLYSGVPSRFSGSRSGTDFTLTISSLQPEDFATYYCQQWGYGALITFGQGTKVEIKRTVAAPSVFIFPPSDSQLKSGTASVVCLLNNFYPREAKVQWKVDNALQSGNSQESVTEQDSKDSTYSLSSTLTLSKADYEKHKVYACEVTHQGLSSPVTKSFNRGECGGS
heavy: EVQLVESGGGLVQPGGSLRLSCAASGFNISYSSIHWVRQAPGKGLEWVASIYPSPGYTSYADSVKGRFTISADTSKNTAYLQMNSLRAEDTAVYYCARHGWYGLDYWGQGTLVTVSSASTKGPSVFPLAPSSKSTSGGTAALGCLVKDYFPEPVTVSWNSGALTSGVHTFPAVLQSSGLYSLSSVVTVPSSSLGTQTYICNVNHKPSNTKVDKKVEPKSC
notes: selection round 2; also called Fzd7-R2-G12
OD 450 [1]: 3.13 | OD 450 (Fc control protein [2]): 0.06 | OD 450 [3]: 3.19 | OD 450 (Fc control protein [4]): 0.14 | % population within the positive gate [5]: 33.3% | % population within the positive gate [6]: 83.8%

B3: E11 (Fab)
light: DIQMTQSPSSLSASVGDRVTITCRASQSVSSAVAWYQQKPGKAPKLLIYSASSLYSGVPSRFSGSRSGTDFTLTISSLQPEDFATYYCQQYSYGYALFTFGQGTKVEIKRTVAAPSVFIFPPSDSQLKSGTASVVCLLNNFYPREAKVQWKVDNALQSGNSQESVTEQDSKDSTYSLSSTLTLSKADYEKHKVYACEVTHQGLSSPVTKSFNRGECGGS
heavy: EVQLVESGGGLVQPGGSLRLSCAASGFNLSSYYMHWVRQAPGKGLEWVASIYPYYSYTYYADSVKGRFTISADTSKNTAYLQMNSLRAEDTAVYYCARYWSGFDYWGQGTLVTVSSASTKGPSVFPLAPSSKSTSGGTAALGCLVKDYFPEPVTVSWNSGALTSGVHTFPAVLQSSGLYSLSSVVTVPSSSLGTQTYICNVNHKPSNTKVDKKVEPKSC
notes: selection round 2; also called Fzd7-R2-E11
OD 450 [1]: 3.24 | OD 450 (Fc control protein [2]): 0.05 | OD 450 [3]: 3.22 | OD 450 (Fc control protein [4]): 0.06 | % population within the positive gate [5]: 99.2% | % population within the positive gate [6]: 94.2%

B4: F9 (Fab)
light: DIQMTQSPSSLSASVGDRVTITCRASQSVSSAVAWYQQKPGKAPKLLIYSASSLYSGVPSRFSGSRSGTDFTLTISSLQPEDFATYYCQQWYYGWHLITFGQGTKVEIKRTVAAPSVFIFPPSDSQLKSGTASVVCLLNNFYPREAKVQWKVDNALQSGNSQESVTEQDSKDSTYSLSSTLTLSKADYEKHKVYACEVTHQGLSSPVTKSFNRGECGGS
heavy: EVQLVESGGGLVQPGGSLRLSCAASGFNISYSSIHWVRQAPGKGLEWVASIYPSYGYTYYADSVKGRFTISADTSKNTAYLQMNSLRAEDTAVYYCARYGYFGMDYWGQGTLVTVSSASTKGPSVFPLAPSSKSTSGGTAALGCLVKDYFPEPVTVSWNSGALTSGVHTFPAVLQSSGLYSLSSVVTVPSSSLGTQTYICNVNHKPSNTKVDKKVEPKSC
notes: selection round 2; also called Fzd7-R2-F9
OD 450 [1]: 3.11 | OD 450 (Fc control protein [2]): 0.06 | OD 450 [3]: 3.16 | OD 450 (Fc control protein [4]): 0.06 | % population within the positive gate [5]: 50.3% | % population within the positive gate [6]: 88.3%
